In patent publication US20230365662A1:
Positions count from the first letter of the chain named. Names and notes keep the numbering of the source. Values joined by “and” are separate entries in the source; they are usually repeats but may differ in a detail not shown here. Identical values can stand only once.

B1: KB001 mouse Fab FASEBA VH S30L (Fab, V domains shown)
VH: EVQLKQSGPGLVAPSQSLSITCTVSGFSLLIYSVHWVRQPPGKGLEWLGMIWGGGSSDYNSALKSRLSISKDNSKSQVFLKMNSLQTDDTAMYYCARNGNFYAMDYWGQGTSVTVSS
VL: QIVLTQSPAIMSASLGERVTMTCTASSSVSSSFLHWYQQKPGSSPQLWIYSTSNLASGVPARFSGSGSGTSYSLTISSMEAEDAATYYCHQYHHSPYIYTFGGGTKLEIK
B2: KB001 mouse Fab FASEBA VH Y32F (Fab, V domains shown)
VH: B1 VH with L30S, Y32F
VL: B1 VL
B3: KB001 mouse Fab FASEBA VH G53S (Fab, V domains shown)
VH: B1 VH with L30S, G53S
VL: B1 VL
B4: KB001 mouse Fab FASEBA VH Y32S (Fab, V domains shown)
VH: B1 VH with L30S, Y32S
VL: B1 VL
B5: KB001 mouse Fab FASEBA VH I51Q/M92I (Fab, V domains shown)
VH: B1 VH with L30S, I51Q, M92I
VL: B1 VL
B6: KB001 mouse Fab FASEBA VH I51V (Fab, V domains shown)
VH: B1 VH with L30S, I51V
VL: B1 VL
B7: KB001 mouse Fab FASEBA VH I31W (Fab, V domains shown)
VH: B1 VH with L30S, I31W
VL: B1 VL
B8: KB001 mouse Fab FASEBA VH S56M (Fab, V domains shown)
VH: B1 VH with L30S, S56M
VL: B1 VL
B9: KB001 mouse Fab FASEBA VH I31F (Fab, V domains shown)
VH: B1 VH with L30S, I31F
VL: B1 VL
B10: KB001 mouse Fab FASEBA VH Y32N (Fab, V domains shown)
VH: B1 VH with L30S, Y32N
VL: B1 VL
B11: KB001 mouse Fab FASEBA VH I31E (Fab, V domains shown)
VH: B1 VH with L30S, I31E
VL: B1 VL
B12: KB001 mouse Fab FASEBA VH S57H (Fab, V domains shown)
VH: B1 VH with L30S, S57H
VL: B1 VL
B13: KB001 mouse Fab FASEBA VH D58S (Fab, V domains shown)
VH: B1 VH with L30S, D58S
VL: B1 VL
B14: KB001 mouse Fab FASEBA VH S57R (Fab, V domains shown)
VH: B1 VH with L30S, S57R
VL: B1 VL
B15: KB001 mouse Fab FASEBA VH G55N (Fab, V domains shown)
VH: B1 VH with L30S, G55N
VL: B1 VL
B16: KB001 mouse Fab FASEBA VH Y59R (Fab, V domains shown)
VH: B1 VH with L30S, Y59R
VL: B1 VL
B17: KB001 mouse Fab FASEBA VH S30M (Fab, V domains shown)
VH: B1 VH with L30M
VL: B1 VL
B18: KB001 mouse Fab FASEBA VH S56E (Fab, V domains shown)
VH: B1 VH with L30S, S56E
VL: B1 VL
B19: KB001 mouse Fab FASEBA VH Y59K (Fab, V domains shown)
VH: B1 VH with L30S, Y59K
VL: B1 VL
B20: KB001 mouse Fab FASEBA VH I31Q (Fab, V domains shown)
VH: B1 VH with L30S, I31Q
VL: B1 VL
B21: KB001 mouse Fab FASEBA VH Y59F (Fab, V domains shown)
VH: B1 VH with L30S, Y59F
VL: B1 VL
B22: KB001 mouse Fab FASEBA VH N60S (Fab, V domains shown)
VH: B1 VH with L30S, N60S
VL: B1 VL
B23: KB001 mouse Fab FASEBA VH S57T (Fab, V domains shown)
VH: B1 VH with L30S, S57T
VL: B1 VL
B24: KB001 mouse Fab FASEBA VH G55D (Fab, V domains shown)
VH: B1 VH with L30S, G55D
VL: B1 VL
B25: KB001 mouse Fab FASEBA VH S56P (Fab, V domains shown)
VH: B1 VH with L30S, S56P
VL: B1 VL
B26: KB001 mouse Fab FASEBA VH Y59M/S571 (Fab, V domains shown)
VH: B1 VH with L30S, S57I, Y59M
VL: B1 VL
B27: KB001 mouse Fab FASEBA VH S30W (Fab, V domains shown)
VH: B1 VH with L30W
VL: B1 VL
B28: KB001 mouse Fab FASEBA VH H35V (Fab, V domains shown)
VH: B1 VH with L30S, H35V
VL: B1 VL
B29: KB001 mouse Fab FASEBA VH S30H (Fab, V domains shown)
VH: B1 VH with L30H
VL: B1 VL
B30: KB001 mouse Fab FASEBA VH G53P (Fab, V domains shown)
VH: B1 VH with L30S, G53P
VL: B1 VL
B31: KB001 mouse Fab FASEBA VH S56L (Fab, V domains shown)
VH: B1 VH with L30S, S56L
VL: B1 VL
B32: KB001 mouse Fab FASEBA VH S56T (Fab, V domains shown)
VH: B1 VH with L30S, S56T
VL: B1 VL
B33: KB001 mouse Fab FASEBA VH D58G (Fab, V domains shown)
VH: B1 VH with L30S, D58G
VL: B1 VL
B34: KB001 mouse Fab FASEBA VH S56N (Fab, V domains shown)
VH: B1 VH with L30S, S56N
VL: B1 VL
B35: KB001 mouse Fab FASEBA VH Y59T (Fab, V domains shown)
VH: B1 VH with L30S, Y59T
VL: B1 VL
B36: KB001 mouse Fab FASEBA VH I31N (Fab, V domains shown)
VH: B1 VH with L30S, I31N
VL: B1 VL
B37: KB001 mouse Fab FASEBA VH I31L (Fab, V domains shown)
VH: B1 VH with L30S, I31L
VL: B1 VL
B38: KB001 mouse Fab FASEBA VH I31P (Fab, V domains shown)
VH: B1 VH with L30S, I31P
VL: B1 VL
B39: KB001 mouse Fab FASEBA VH S30F (Fab, V domains shown)
VH: B1 VH with L30F
VL: B1 VL
B40: KB001 mouse Fab FASEBA VH Y32W (Fab, V domains shown)
VH: B1 VH with L30S, Y32W
VL: B1 VL
B41: KB001 mouse Fab FASEBA VH V34M (Fab, V domains shown)
VH: B1 VH with L30S, V34M
VL: B1 VL
B42: KB001 mouse Fab FASEBA VH S57M (Fab, V domains shown)
VH: B1 VH with L30S, S57M
VL: B1 VL

Molecular target: HRgpA-6H (Porphyromonas gingivalis) (UniProt P28784)
Assay: ELISA on coated HRgpA-6H

UniProt P28784, sequence (P28784 228-991 limits assumed): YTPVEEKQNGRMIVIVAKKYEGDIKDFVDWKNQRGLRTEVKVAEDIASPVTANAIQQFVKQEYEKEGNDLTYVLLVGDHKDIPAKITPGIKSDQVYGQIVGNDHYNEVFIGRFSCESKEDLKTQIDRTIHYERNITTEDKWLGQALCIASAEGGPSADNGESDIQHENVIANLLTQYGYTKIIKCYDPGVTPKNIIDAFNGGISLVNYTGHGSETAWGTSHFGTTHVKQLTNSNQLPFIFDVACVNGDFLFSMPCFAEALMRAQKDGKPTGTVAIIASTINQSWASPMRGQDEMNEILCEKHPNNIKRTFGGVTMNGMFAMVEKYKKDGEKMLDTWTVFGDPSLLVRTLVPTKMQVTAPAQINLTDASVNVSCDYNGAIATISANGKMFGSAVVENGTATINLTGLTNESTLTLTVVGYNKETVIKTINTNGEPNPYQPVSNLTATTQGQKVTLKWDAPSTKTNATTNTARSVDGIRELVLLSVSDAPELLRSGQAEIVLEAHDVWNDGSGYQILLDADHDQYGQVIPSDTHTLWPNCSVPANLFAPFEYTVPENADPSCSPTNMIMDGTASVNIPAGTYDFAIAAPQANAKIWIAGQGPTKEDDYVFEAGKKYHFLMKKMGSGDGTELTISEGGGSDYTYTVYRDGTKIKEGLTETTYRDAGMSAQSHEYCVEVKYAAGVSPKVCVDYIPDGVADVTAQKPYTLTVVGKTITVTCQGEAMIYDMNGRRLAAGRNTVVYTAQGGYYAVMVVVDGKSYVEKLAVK

Binder | OD450nm | Ratio OD(Variant)/OD(WT)
B1 | 0.468 | 0.928
B2 | 0.814 and 0.807 | 0.962 and 0.953
B3 | 0.686 | 0.861
B4 | 0.717 and 0.783 and 0.718 | 0.847 and 0.925 and 0.848
B5 | 0.722 | 0.817
B6 | 0.798 | 0.903
B7 | 0.459 | 0.91
B8 | 0.809 | 0.92
B9 | 0.45 | 0.892
B10 | 0.826 and 0.775 | 0.976 and 0.916
B11 | 0.42 and 0.458 and 0.428 | 0.833 and 0.908 and 0.848
B12 | 0.8 | 0.91
B13 | 0.646 | 0.817
B14 | 0.796 | 0.905
B15 | 0.652 | 0.81
B16 | 0.633 | 0.8
B17 | 0.437 | 0.866
B18 | 0.772 and 0.713 | 0.878 and 0.811
B19 | 0.648 | 0.819
B20 | 0.44 and 0.439 | 0.872 and 0.87
B21 | 0.668 | 0.845

Binder | OD450nm | Ratio OD(Variant)/OD(WT)
B22 | 0.452 | 0.916
B23 | 0.843 and 0.849 | 0.958 and 0.965
B24 | 0.697 | 0.866
B25 | 0.855 and 0.788 and 0.824 | 0.972 and 0.896 and 0.937
B26 | 0.701 | 0.886
B27 | 0.469 | 0.93
B28 | 0.706 | 0.856
B29 | 0.482 | 0.955
B30 | 0.754 and 0.716 | 0.947 and 0.899
B31 | 0.71 | 0.807
B32 | 0.838 and 0.844 and 0.853 | 0.953 and 0.96 and 0.97
B33 | 0.778 | 0.984
B34 | 0.759 and 0.743 | 0.863 and 0.845
B35 | 0.744 | 0.941
B36 | 0.429 | 0.85
B37 | 0.442 and 0.431 | 0.876 and 0.854
B38 | 0.471 and 0.428 | 0.934 and 0.848
B39 | 0.438 | 0.868
B40 | 0.731 and 0.718 and 0.747 | 0.864 and 0.848 and 0.882
B41 | 0.793 and 0.791 | 0.962 and 0.959
B42 | 0.748 | 0.85
